Test results reported in paper PMC8333356 (Nature Communications, 2021).

Target: receptor binding domain (RBD) of SARS-CoV-2 spike (SARS-CoV-2 Wuhan-Hu-1, UniProt P0DTC2)
Experiment: cryo-EM structure
Conditions: both partners purified

Row | Binder | binding result
1 | Nb36 (VHH, Cloned in pET-21b(+); also called class III Nb; source: E. coli BL21 (DE3), purified (cobalt resin, Superdex 75)) VHH: VQLVESGGGLVQAGGSLTLTCAASGRTFSSETMDMGWFRQAPGKEREFVAADSWNDGSTYYADSVKGRFTISRDSAKNTLYLQMNSLKPEDTAVYYCAAETYSIYEKDDSWGYWGQGTQVTVS | binds
2 | Nb105 (VHH, Cloned in pET-21b(+); also called class II Nb; source: E. coli BL21 (DE3), purified (cobalt resin, Superdex 75)) VHH: VQLVESGGGLVQAGGSLRLSCAVSGRTFSTYGMAWFRQAPGKERDFVATITRSGETTLYADSVKGRFTISRDNAKNTVYLQMNSLKIEDTAVYYCAVRRDSSWGYSRDLFEYDYWGQGTQVTVS | binds
